Results reported in PMC9437119 (The Journal of Cell Biology, 2022).
“And” between values parts separate entries of the source, which are not always exact repeats. Identical values can stand only once.

Molecular target: the molecule itself
Assay: SDS-resistant oligomers on SDS-PAGE immunoblot of the immunoprecipitate; anti-myc immunoprecipitate of the Mid51/Fis1 complex from HeLa lysate heated 20 min at 55°C, 4-20% Tris-Glycine SDS-PAGE; SDS-resistant complexes detected with anti-myc (Mid51 species) or anti-Flag (Fis1 species); species normalized to monomer

Protein	stoichiometry N
myc-tagged human Mid51 (WT) (natural protein, UniProt Q9NQG6 1-463, looked up, Mid51 (MIEF1), human, outer mitochondrial membrane protein; plasmid generated using VectorBuilder; Seen as monomer, dimer, tetramer and HMW species on the IP immunoblot; also called MIEF1; WT Mid51; source: HeLa cells, transfected for 24 h, in lysate) MAGAGERKGKKDDNGIGTAIDFVLSNARLVLGVGGAAMLGIATLAVKRMYDRAISAPTSPTRLSHSGKRSWEEPNWMGSPRLLNRDMKTGLSRSLQTLPTDSSTFDTDTFCPPRPKPVARKGQVDLKKSRLRMSLQEKLLTYYRNRAAIPAGEQARAKQAAVDICAELRSFLRAKLPDMPLRDMYLSGSLYDDLQVVTADHIQLIVPLVLEQNLWSCIPGEDTIMNVPGFFLVRRENPEYFPRGSSYWDRCVVGGYLSPKTVADTFEKVVAGSINWPAIGSLLDYVIRPAPPPEALTLEVQYERDKHLFIDFLPSVTLGDTVLVAKPHRLAQYDNLWRLSLRPAETARLRALDQADSGCRSLCLKILKAICKSTPALGHLTASQLTNVILHLAQEEADWSPDMLADRFLQALRGLISYLEAGVLPSALNPKVNLFAELTPEEIDELGYTLYCSLSEPEVLLQT	2 and 4
myc-tagged human Mid51(Y240N) (natural protein, UniProt Q9NQG6 1-463, looked up, Mid51 (MIEF1), human, variant Y240N linked to dominant optic atrophy; plasmid generated using VectorBuilder; source: HeLa cells, transfected for 24 h, in lysate) MAGAGERKGKKDDNGIGTAIDFVLSNARLVLGVGGAAMLGIATLAVKRMYDRAISAPTSPTRLSHSGKRSWEEPNWMGSPRLLNRDMKTGLSRSLQTLPTDSSTFDTDTFCPPRPKPVARKGQVDLKKSRLRMSLQEKLLTYYRNRAAIPAGEQARAKQAAVDICAELRSFLRAKLPDMPLRDMYLSGSLYDDLQVVTADHIQLIVPLVLEQNLWSCIPGEDTIMNVPGFFLVRRENPENFPRGSSYWDRCVVGGYLSPKTVADTFEKVVAGSINWPAIGSLLDYVIRPAPPPEALTLEVQYERDKHLFIDFLPSVTLGDTVLVAKPHRLAQYDNLWRLSLRPAETARLRALDQADSGCRSLCLKILKAICKSTPALGHLTASQLTNVILHLAQEEADWSPDMLADRFLQALRGLISYLEAGVLPSALNPKVNLFAELTPEEIDELGYTLYCSLSEPEVLLQT	2 and 4
